These results are taken from PMC4997346 (2016).

The target of one assay is T1, FVIIa [E] (Homo sapiens, UniProt P08709).
T1 chain 1: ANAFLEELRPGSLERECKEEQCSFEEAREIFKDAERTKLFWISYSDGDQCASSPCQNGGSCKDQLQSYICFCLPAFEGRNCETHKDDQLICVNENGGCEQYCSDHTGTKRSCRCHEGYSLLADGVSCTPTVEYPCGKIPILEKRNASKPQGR
T1 chain 2: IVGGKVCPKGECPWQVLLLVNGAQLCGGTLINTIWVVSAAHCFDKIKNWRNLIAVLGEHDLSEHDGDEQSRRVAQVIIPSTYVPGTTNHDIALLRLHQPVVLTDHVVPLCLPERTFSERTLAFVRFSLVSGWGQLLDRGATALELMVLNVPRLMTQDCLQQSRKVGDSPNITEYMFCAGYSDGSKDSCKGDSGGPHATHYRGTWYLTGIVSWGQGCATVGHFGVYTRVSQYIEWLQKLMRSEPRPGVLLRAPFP
The experiment in a line: FX activation inhibition kinetics (Lineweaver-Burk secondary plot).

Assay [1] addresses intrinsic tenase complex (FIXa/FVIIIa) (Homo sapiens, UniProt P00740). The description is as above.
In assay [2] the target is T2, FVIIa/TF extrinsic tenase complex [E] (Homo sapiens, UniProt P08709).
T2 chain 1: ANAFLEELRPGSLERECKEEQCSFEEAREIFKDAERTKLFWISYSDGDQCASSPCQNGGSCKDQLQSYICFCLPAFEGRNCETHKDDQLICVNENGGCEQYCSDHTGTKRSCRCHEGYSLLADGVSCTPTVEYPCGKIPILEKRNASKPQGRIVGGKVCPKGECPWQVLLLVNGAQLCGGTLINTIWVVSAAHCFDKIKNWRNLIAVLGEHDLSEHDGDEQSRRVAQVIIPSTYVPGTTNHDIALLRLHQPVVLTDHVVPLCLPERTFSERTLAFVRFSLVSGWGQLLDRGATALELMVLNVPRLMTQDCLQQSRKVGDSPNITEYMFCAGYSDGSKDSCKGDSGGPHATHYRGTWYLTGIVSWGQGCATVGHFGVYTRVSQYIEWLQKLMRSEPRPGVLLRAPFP
T2 chain 2: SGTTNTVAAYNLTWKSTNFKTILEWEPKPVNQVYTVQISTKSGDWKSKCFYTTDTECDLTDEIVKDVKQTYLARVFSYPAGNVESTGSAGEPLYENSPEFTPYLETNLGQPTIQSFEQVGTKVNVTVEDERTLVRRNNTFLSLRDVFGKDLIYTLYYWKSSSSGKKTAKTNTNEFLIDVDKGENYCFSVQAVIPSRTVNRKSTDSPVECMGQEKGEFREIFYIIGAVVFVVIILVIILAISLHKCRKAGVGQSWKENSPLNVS
The assay is described as above.

Another assay deals with FVIIa/FX complex [ES] (Homo sapiens, UniProt P08709). Kind of assay: FX activation inhibition kinetics (Lineweaver-Burk secondary plot, Ki').
Assay [3] has as its target FVIIa/TF/FX extrinsic tenase complex [ES] (Homo sapiens, UniProt P08709). Described as above.
The target of assay [4] is T2, FVIIa/TF extrinsic tenase complex [E]. The experiment in a line: FIX activation inhibition kinetics (Lineweaver-Burk secondary plot).
The target of assay [5] is FVIIa/TF/FIX complex [ES] (Homo sapiens, UniProt P08709). Kind of assay: FIX activation inhibition kinetics (Lineweaver-Burk secondary plot, Ki').
A further assay concerns the target T3, FVIIa/sTF complex [E] (Homo sapiens, UniProt P08709).
T3 chain 1: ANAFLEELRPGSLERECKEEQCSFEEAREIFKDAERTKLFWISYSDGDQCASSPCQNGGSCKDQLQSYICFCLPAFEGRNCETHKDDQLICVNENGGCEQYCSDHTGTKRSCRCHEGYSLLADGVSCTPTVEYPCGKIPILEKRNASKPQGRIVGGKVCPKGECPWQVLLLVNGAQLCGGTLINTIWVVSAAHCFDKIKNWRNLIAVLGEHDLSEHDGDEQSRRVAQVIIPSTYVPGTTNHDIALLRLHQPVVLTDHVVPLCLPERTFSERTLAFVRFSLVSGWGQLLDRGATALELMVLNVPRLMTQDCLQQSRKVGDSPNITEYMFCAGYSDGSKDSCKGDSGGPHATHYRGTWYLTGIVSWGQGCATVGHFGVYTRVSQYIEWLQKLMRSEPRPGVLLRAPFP
T3 chain 2: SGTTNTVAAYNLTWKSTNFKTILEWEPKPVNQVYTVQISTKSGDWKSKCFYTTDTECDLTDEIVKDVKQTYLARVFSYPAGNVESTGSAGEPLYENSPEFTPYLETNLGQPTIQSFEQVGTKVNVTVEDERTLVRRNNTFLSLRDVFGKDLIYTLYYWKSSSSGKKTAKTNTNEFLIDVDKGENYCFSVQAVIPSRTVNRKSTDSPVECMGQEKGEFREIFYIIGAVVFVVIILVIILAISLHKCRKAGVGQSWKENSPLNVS
The experiment in a line: FX activation inhibition kinetics (Lineweaver-Burk secondary plot).

For assay [6], the target named is FVIIa/sTF/FX complex [ES] (Homo sapiens, UniProt P08709). Kind of assay: FX activation inhibition kinetics (Lineweaver-Burk secondary plot, Ki').

No end group written: not given here.

Chain of intrinsic tenase complex (FIXa/FVIIIa) (P00740 47-461, chain 1 of 2): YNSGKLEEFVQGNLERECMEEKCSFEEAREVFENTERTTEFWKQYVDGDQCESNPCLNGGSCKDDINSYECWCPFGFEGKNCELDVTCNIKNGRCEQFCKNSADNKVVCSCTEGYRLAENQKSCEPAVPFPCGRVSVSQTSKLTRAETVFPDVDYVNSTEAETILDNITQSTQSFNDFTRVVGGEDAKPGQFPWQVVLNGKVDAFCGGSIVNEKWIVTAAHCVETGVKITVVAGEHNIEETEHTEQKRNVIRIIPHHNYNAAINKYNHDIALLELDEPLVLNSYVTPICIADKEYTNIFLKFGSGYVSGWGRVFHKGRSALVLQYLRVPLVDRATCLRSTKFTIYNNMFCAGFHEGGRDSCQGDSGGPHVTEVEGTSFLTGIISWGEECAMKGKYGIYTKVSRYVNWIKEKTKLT
Chain of intrinsic tenase complex (FIXa/FVIIIa) (P00451 20-2351, chain 2 of 2, further chain): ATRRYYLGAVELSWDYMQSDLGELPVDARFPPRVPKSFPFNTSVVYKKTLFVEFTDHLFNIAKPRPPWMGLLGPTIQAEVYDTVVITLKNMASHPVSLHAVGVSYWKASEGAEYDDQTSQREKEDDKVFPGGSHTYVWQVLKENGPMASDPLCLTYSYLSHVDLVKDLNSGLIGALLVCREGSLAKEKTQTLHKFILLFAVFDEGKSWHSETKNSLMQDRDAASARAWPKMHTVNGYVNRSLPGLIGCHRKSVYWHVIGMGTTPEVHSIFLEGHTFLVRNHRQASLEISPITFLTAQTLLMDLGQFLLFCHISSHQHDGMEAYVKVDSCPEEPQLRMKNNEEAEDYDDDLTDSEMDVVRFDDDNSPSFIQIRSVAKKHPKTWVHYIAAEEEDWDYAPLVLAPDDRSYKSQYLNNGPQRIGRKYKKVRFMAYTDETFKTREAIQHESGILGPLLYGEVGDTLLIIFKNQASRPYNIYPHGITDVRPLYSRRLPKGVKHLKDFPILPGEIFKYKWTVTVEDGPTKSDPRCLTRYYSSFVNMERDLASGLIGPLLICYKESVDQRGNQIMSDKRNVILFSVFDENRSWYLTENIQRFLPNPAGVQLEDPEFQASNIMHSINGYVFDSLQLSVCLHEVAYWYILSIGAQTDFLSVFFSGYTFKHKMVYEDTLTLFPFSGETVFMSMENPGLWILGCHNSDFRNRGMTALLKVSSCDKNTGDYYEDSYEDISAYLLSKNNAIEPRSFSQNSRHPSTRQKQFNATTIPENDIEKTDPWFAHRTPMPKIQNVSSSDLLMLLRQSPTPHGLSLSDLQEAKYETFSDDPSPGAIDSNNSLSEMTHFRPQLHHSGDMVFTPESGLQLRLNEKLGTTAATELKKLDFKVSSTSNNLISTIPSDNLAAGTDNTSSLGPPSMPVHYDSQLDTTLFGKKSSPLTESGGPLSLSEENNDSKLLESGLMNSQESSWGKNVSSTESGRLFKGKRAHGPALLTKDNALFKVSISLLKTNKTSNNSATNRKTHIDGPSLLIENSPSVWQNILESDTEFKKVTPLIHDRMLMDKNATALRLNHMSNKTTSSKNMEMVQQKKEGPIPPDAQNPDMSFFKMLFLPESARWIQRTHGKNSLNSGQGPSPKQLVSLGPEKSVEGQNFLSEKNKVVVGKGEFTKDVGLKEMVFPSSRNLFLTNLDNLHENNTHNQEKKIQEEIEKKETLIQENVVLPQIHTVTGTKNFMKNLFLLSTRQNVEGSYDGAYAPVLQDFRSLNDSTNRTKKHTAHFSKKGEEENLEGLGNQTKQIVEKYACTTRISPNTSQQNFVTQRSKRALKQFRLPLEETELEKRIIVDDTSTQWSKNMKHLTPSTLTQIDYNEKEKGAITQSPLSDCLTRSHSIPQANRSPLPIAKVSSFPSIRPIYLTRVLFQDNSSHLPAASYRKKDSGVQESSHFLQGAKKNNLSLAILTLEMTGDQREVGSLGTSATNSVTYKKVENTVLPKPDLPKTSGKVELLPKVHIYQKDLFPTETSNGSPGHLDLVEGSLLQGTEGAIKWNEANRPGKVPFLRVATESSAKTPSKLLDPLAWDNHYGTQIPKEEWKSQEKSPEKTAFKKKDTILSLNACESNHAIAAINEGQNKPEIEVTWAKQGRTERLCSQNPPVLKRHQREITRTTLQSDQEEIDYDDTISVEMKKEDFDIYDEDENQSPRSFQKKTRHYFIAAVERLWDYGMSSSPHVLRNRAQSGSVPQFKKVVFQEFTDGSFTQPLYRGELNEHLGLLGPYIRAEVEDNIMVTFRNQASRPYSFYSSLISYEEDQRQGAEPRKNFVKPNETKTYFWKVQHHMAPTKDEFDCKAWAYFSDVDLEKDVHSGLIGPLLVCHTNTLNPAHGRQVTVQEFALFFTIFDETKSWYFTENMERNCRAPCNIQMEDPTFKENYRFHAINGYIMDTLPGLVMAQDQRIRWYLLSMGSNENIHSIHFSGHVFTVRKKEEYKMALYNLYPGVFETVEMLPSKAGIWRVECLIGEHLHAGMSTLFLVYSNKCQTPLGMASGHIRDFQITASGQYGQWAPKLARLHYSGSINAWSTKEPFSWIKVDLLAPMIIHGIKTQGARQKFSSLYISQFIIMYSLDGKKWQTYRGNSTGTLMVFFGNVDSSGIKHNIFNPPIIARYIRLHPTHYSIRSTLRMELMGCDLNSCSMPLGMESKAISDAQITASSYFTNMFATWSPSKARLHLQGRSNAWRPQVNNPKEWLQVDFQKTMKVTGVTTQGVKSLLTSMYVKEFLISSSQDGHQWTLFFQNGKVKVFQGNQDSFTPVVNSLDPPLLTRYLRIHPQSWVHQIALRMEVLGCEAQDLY

B1: exactin (protein)
chain: LECYQKSKVVTCQPEQKFCYSDTTMFFPNHPVYLSGCTFSCTEEGNRRCCTTDKCNR
modifications: disulfide (positions not given here); also: four disulfide bonds, pairing not given here
Turning to B1, the Ki (as a rule, the equilibrium dissociation constant of an inhibitor or competing ligand from its target) with FVIIa [E] turned out to be 0.184 µM; in [1] it was 1.67 µM; in assay [2], 0.154 µM; with FVIIa/FX complex [ES] it was 0.103 µM; in [3], 0.0306 µM; in [4], 129 µM. The Ki in assay [5] was 38.7 µM.

B2: exactin (protein)
chain: LECYQKSKVVTCQPEQKFCYSDTTMFFPNHPVYLSGCTFSCTEEGNRRCCTTDKCNR
With B2, the results for the Ki (with FVIIa/sTF complex [E]; in assay [6]) were 1250 µM and 295 µM, respectively.
